Results published in publication PMC12430012.
Substitutions are numbered along the chain they refer to. Numbers in names are those of the source.

B1: His6-DNAJB11 WT, Q9UBS4 T188A (protein)
chain: GRDFYKILGVPRSASIKDIKKAYRKLALQLHPDRNPDDPQAQEKFQDLGAAYEVLSDSEKRKQYDTYGEEGLKDGHQSSHGDIFSHFFGDFGFMFGGTPRQQDRNIPRGSDIIVDLEVTLEEVYAGNFVEVVRNKPVARQAPGKRKCNCRQEMRTTQLGPGRFQMAQEVVCDECPNVKLVNEERTLEVEIEPGVRDGMEYPFIGEGEPHVDGEPGDLRFRIKVVKHPIFERRGDDLYTNVTISLVESLVGFEMDITHLDGHKVHISRDKITRPGAKLWKKGEGLPNFDNNNIKGSLIITFDVDFPKEQLTEEAREGIKQLLKQGSVQKVYNGLQGY
B2: His6-DNAJB11 WT, Q9UBS4 T188E (protein)
chain: B1 chain with A166E

Molecular target: GST-α-synuclein, P37840
Assay: GST pull-down (glutathione agarose), western blot, ImageJ quantification
Settings: chain shown with the change; E. coli lysates, in vitro; parent: est. 1.0; read off a plot

| Binder | ratio to parent |
| --- | --- |
| B1 | 0.8 |
| B2 | 4.9 |
